# Results: patent US20210054084A1 (published 2021)
# T1: recombinant human CD25 his tagged (UniProt P01589 22-213)
# T1 chain: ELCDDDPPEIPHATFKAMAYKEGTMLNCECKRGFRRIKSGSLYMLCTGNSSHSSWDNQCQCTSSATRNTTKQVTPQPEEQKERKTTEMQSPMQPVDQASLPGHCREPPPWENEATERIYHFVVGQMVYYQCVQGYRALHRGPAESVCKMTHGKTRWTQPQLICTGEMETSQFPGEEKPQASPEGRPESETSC
# Molecular target: T1, recombinant human CD25 his tagged
# Assay: BLI (Octet)
binder,measurement,value
"Antibody 1 as human IgG1 expressed in mammalian cells (antibody, V domains shown) VH: EVQLVESGGGLIQPGGSLRLSCAASGFTLDSYGVSWVRQAPGKGLEWVGVTSSGGSAYYADSVKGRFTISRDNSKNTLYLQMNSLRAEDTAVYYCARDRYVYTGGYLYHYGMDLWGQGTLVTVSS VL: DIQMTQSPSSLSASVGDRVTITCRASQSISDYLAWYQQKPGKVPKLLIYAASTLPFGVPSRFSGSGSGTDFTLTISSLQPEDVATYYCQGTYDSSDWYWAFGGGTKVEIK",Kd,0.8 nM
